{"source": "patent US20030054411A1", "about": "“GPR motifs and uses thereof” (priority 2001, published 2003)", "molecules": {"B1": {"name": "AGS3: Activator of G-protein Signalling 3; bioactive 74 amino acid fragment isolated in yeast screen, tested as GST fusion (protein)", "chain": "MLIKYQSSRIDDQRCPPPDVLPRGPTMPDEDFFSLIQRVQAKRMDEQRVDLAGSPDQEASGLPDPRQQCPPGAS", "modifications": "left off: a dimerising Fc or GST"}}, "key": {"Giα2": {"target": "T1, Giα2 (Homo sapiens, UniProt P04899)", "T1 construct": "made in house; host or cells: Sf9 insect cells", "assay": "GST fusion protein interaction with purified Giα2", "assay_type": "binding", "settings": "for interaction with Giα2: GST fusion protein ~300 nM, Gα 60-80 nM", "excerpt": "(A) Bioactivity of cDNA #37 and 53 in yeast strains expressing different Gα subunits. The Gpa1, Giα2Gpa1(1-41), Giα3Gpa1(1-41) and Gα16Gpa1(1-41) yeast strains expressed similar amounts of G-protein as determined by immunoblotting with Gpa1-specific antisera. Each series of experiments include data obtained in the absence of Gα to indicate the signal obtained when the action of Gβγ is not limited by reformation of heterotrimer. Data are presented as the mean±S.E.M of three experiments with duplicate determinations. (B) Interaction of AGS2 and AGS3 with G-proteins. AGS2 and the bioactive AGS3 peptide (74 amino acids) beginning at the first in frame methionine were generated as GST-fusion proteins in bacteria and purified using a glutathione affinity matrix. AGS2 and AGS3 GST fusion proteins were incubated with G-protein subunits (Gα=60-80 nM, Gβγ=40 nM, fusion protein=˜300 nM, total volume=250 ul) for 12 hrs at 4° C. GDP=10 uM. GTPγS=10 uM plus 5 mM MgCl2. Proteins were then adsorbed to glutathione matrix and retained G-protein subunits identified by immunoblotting following gel electrophoresis. Giα2 was generated in Sf9 cells as an amino terminal his6-tagged protein and was detected on membrane transfers using anti-Xpress antisera (Invitrogen). Bovine brain Gβγ was detected on membrane transfers with Gβ antisera. Input refers to 20 ul of the incubation mixture. The results presented are representative of four separate experiments. […] C) Effect of G204A Giα2 substitution and RGS4 on the functionality of AGS proteins. The G204A Giα2 yeast strain and the system used for over expression of RGS4 are described in detail in reference 5. Protein expression was confirmed by immunoblotting. AGS 1 was discovered in a similar screen using a human liver cDNA library (5, 7). WT—wild type strain CY1316/1183 containing Giα2 as described for the original yeast screen. RGS4 was overexpressed in the CY1316/1183 yeast strain. […]\n(§1) Immunoblotting and G-protein interaction assays. […] Bound proteins were detected by immunoblotting membrane transfers with specific antisera. […]"}, "[1]": {"tested_on": "Giα3 in DDT1-MF2 cell lysates", "assay": "GST-AGS3 interaction with endogenous Giα3 in cell lysates", "assay_type": "binding", "settings": "30 uM GDP or GTPγS", "excerpt": "A) Sequence of full length rat AGS3. The shaded and overlined sequences represent the tetratricopeptide repeat motif and a repeated segment of amino acids (I-IV), respectively, as discussed in the text. The underlined amino acids indicate the fragment (cDNA #53) isolated in the original yeast screen. B) The four repeat domains in the carboxyl terminus half of AGS3, human LGN, the predicted C. elegans protein and related sequences identified by the motif search program MEME were aligned and used to define a consensus sequence as described in the Examples. Right panel—Interaction of wild type AGS3 and AGS3 mutants with Giα2 in mammalian cell extracts. The AGS3 eDNA isolated in the yeast screen and shown to interact with Gα subunits (FIG. 2B) was modified by site-directed mutagenesis to disrupt conserved residues within the GPR motif. The number of the amino acids altered in the mutant constructs (F8R, Q15A and R23F) refers to their position in the sequence found in the left panel aligning the conserved domains. […] Giα subunits were detected on membrane transfers with the Giα3 antibody and Gβ was detected with an amino terminus antibody. […]\nas §1"}}, "data": [{"molecule": "AGS2: Activator of G-protein Signalling 2, protein identical to mouse Tctex1, isolated from NG108-15 cDNA library", "values": [{"measurement": "interaction with Giα2", "setting": "Giα2", "result": "did not interact"}]}, {"molecule": "B1", "values": [{"measurement": "preferred nucleotide-bound conformation of Gα", "setting": "Giα2; GDP 10 uM versus GTPγS 10 uM", "result": "preferred the GDP bound conformation"}, {"measurement": "interaction with Giα2", "setting": "Giα2", "result": "specifically bound"}, {"measurement": "nucleotide preference of interaction with Gα in crude cell lysate", "setting": "[1]", "result": "preferentially interacted with GαGDP versus GTPγS"}]}]}
